{"source": "patent US20260258115A1", "about": "(MAPP BIOPHARMACEUTICAL, published 2026)", "binders": {"B1": {"name": "ADI-24814 (antibody, V domains shown)", "VH": "EVQLLESGGGVVQPGRSLRLSCAASGFTFNSYTMHWVRQAPGKGLEWVAVISYDGSNKYYADSVKGRFTISRDNSKNTLYLQMNSLRAEDTAVYYCARGRPYDFWSGYYTDYYYYMDVWGKGTTVTVSS", "VL": "EIVLTQSPGTLSLSPGERATLSCRASQSVYSNYLAWYQQKPGQAPRLLIYGASSRATGIPDRFSGSGSGTDFTLTISRLEPEDFAVYYCQQCGSSWTFGQGTKVEIK", "notes": "full-length IgG"}, "B2": {"name": "ADI-25484 (antibody, V domains shown)", "VH": "EVQLVESGGGLVKPGGSLRLSCAASGFTFSSYSMNWVRQAPGKGLEWVSSISSSSSYIYYADSVKGRFTISRDNAKNSLYLQMNSLRAEDTAVYYCARSIAVAGTGYGMDVWGQGTTVTVSS", "VL": "not shown", "notes": "full-length IgG"}, "B3": {"name": "ADI-25495 (antibody, V domains shown)", "VH": "QVQLVQSGGGLVKPGGSLRLSCAASGFTFSSYSMNWVRQAPGKGLEWVSSISSSSSYIYYADSVKGRFTISRDNAKNSLYLQMNSLRAEDTAVYYCARGYCTNGVCYLDAFDIWGQGTTVTVSS", "VL": "QSVLIQPASVSGSPGQSITISCTGTSSDVGGYNYVSWYQQHPGKAPKLMIYDVSNRPSGVSNRFSGSKSGNTASLTISGLQAEDEADYYCSSYTSSSTPVVFGGGTKVTVL", "notes": "full-length IgG"}, "B4": {"name": "ADI-24831 (antibody, V domains shown)", "VH": "QVQLVESGGGLVKPGGSLRLSCAASGFTFSSYSMNWVRQAPGKGLEWVSSISSSSSYIYYADSVKGRFTISRDNAKNSLYLQMNSLRAEDTAVYYCARVPSDFWSGYYNDYWGQGTLVTVSS", "VL": "QSVLTQPPSVSGAPGQRVTISCTGSSSNIGAGYDVHWYQQLPGTAPKLLIYGNSNRPSGVPDRFSGSKSGTSASLAITGLQAEDEADYYCQSYDSSLSGSWVFGGGTKLTVL", "notes": "full-length IgG; also called Ab 393"}, "B5": {"name": "ADI-25532 (antibody, V domains shown)", "VH": "QVQLVQSGGGLVKPGGSLRLSCAASGFTFSSYSMNWVRQAPGKGLEWVSSISSSSSYIYYADSVKGRFTISRDNAKNSLYLQMNSLRAEDTAVYYCARGSSSSWYYFDYWGQGTLVTVSS", "VL": "QSVVTQPPSVSGAPGQRVTISCTGSSSNIGAGYDVHWYQQLPGTAPKLLIYGNSNRPSGVPDRFSGSKSGTSASLAITGLQAEDEADYYCQSYDSSLSYVFGTGTKVTVL", "notes": "full-length IgG"}, "B6": {"name": "ADI-24842 (antibody, V domains shown)", "VH": "B4 VH with E6Q, S101P, D102H, F103D, W104Y, S105G, N109F", "VL": "B5 VL with G52R, T78I, Y99V, T103G, V107L", "notes": "full-length IgG"}, "B7": {"name": "ADI-24839 (antibody, V domains shown)", "VH": "EVQLVESGGGLVKPGGSLRLSCAASGFTFSSYSMNWVRQAPGKGLEWVSSISSSSSYIYYADSVKGRFTISRDNAKNSLYLQMNSLRAEDTAVYYCARVLVATAYGNAFDIWGQGTMVTVSS", "VL": "B5 VL with V4L, S98T, Y99V, T103G, V107L", "notes": "full-length IgG"}, "B8": {"name": "ADI-24828 (antibody, V domains shown)", "VH": "EVQLVESGGGLVKPGGSLRLACAASGFSFRSYRMNWVRQAPGKGLEWVSSISSSSSYIDYADSVKGRFTISRDNAKNTVYLQVNSLRAEDTAVYYCARDGRTIFGVVIDYWGQGTLVTVSS", "VL": "B5 VL with V4L, S54N, A76V, Y99V, T103G, V107L", "notes": "full-length IgG; also called Ab 390"}, "B9": {"name": "ADI-25462 (antibody, V domains shown)", "VH": "B5 VH with Q1E, Q6E, D73H, Y105F, Y106C", "VL": "B5 VL with Q1S, S2Y, V4L, V107L", "notes": "full-length IgG"}, "B10": {"name": "ADI-24857 (antibody, V domains shown)", "VH": "B4 VH with Q1E, V5L, V99E, P100G, S101Y, D102Y, F103Y, W104G, Y107S, N109L", "VL": "B5 VL with Y99V, T103G, V107L", "notes": "full-length IgG"}, "B11": {"name": "ADI-24819 (antibody, V domains shown)", "VH": "B5 VH with Q1E, V5L, Q6E, G99E, S101G, S103G", "VL": "B5 VL with V4L, S95G, Y99G, T103G", "notes": "full-length IgG"}, "B12": {"name": "ADI-24792 (antibody, V domains shown)", "VH": "EVQLVESGGGLVKPGGSLRLSCAASGFIFSDYYMSWIRQAPGKGLEWVSNISGGSSFTNYADSVKGRFTISRDNAKNSLYLQMNSLRAEDTAVYYCARDLGYCSSNSCLDAFDIWGQGTTVTVSS", "VL": "QSVLTQPPSVSGAPGQRVTISCTGSSSNIGAGYDVHWYQQLPGTAPKLLIYGNTNRPSGVPDRFSGSRSGTSASLAITGLQAEDEADYYCQSYDSSLSGSLFGGGTKVTVL", "notes": "full-length IgG"}, "B13": {"name": "ADI-24860 (antibody, V domains shown)", "VH": "EVQLLESGGGLVKPGGSLRLSCAASGLTFSDYYMSWIRQAPGKGLEWVSYISGGSSYSNYADSVKGRFTISRDNAKNSLYLQMNSLRAEDTAVYYCARGYCSGSSCYEAFDIWGQGTTVTVSS", "VL": "B12 VL with Q1S, S2Y, Y33F, T54S, N55D, R68K, S100Y, L101V, G104T", "notes": "full-length IgG; also called Ab 420"}, "B14": {"name": "ADI-24817 (antibody, V domains shown)", "VH": "EVQLVESGGGLVKPGGSLRLSCAASGFTFSSYSMNWVRQAPGKGLEWVSSISSSSSYIYYADSVKGRFTISRDNAKNSLYLQMNSLRAEDTAVYYCARDSMALLYSNYWFDPWGQGTLVTVSS", "VL": "B12 VL with L4V, T54S, R68K, L101V, V108L", "notes": "full-length IgG"}, "B15": {"name": "ADI-24832 (antibody, V domains shown)", "VH": "EVQLVESGGGLVKPGGSLRLSCAASGFTFSSYSMNWVRQAPGKGLEWVSSISASSSYIFYSDLVKGRFTISRDNAKNSLYLQMNSLRAEDTAVYYCARAGYYYGSGSYYVDYWGQGTLVTVSS", "VL": "B12 VL with T19A, T54S, R68K, D94G, S100W, L101V, V108L", "notes": "full-length IgG"}, "B16": {"name": "ADI-24850 (antibody, V domains shown)", "VH": "QVQLVQSGGGLVKPGGSLRLSCAASGFTFSSYSMNWVRQAPGKGLEWVSSISSSSSYIYYADSVKGRFTISRDNAKNSLYLQMNSLRAEDTAVYYCAREDYGDYYYYYMDVWGKGTTVTVSS", "VL": "B12 VL with S2P, T54S, R68K, S100Y, L101V, G104T", "notes": "full-length IgG"}, "B17": {"name": "ADI-24805 (antibody, V domains shown)", "VH": "QVQLVQSGGGLVKPGGSLRLSCAASGFTFSSYSMNWVRQAPGKGLEWVSSISSSSSYIYYADSVKGRFTISRDNAKNSLYLQMNSLRAEDTAVYYCAREGYSSSSGYYYYMDVWGKGTTVTVSS", "VL": "B12 VL with T54S, R68K, L101V, G104T", "notes": "full-length IgG; also called Ab 370"}, "B18": {"name": "ADI-24835 (antibody, V domains shown)", "VH": "EVQLVESGGGLVKPGGSLRLSCAASGFPFSTSSMNWVRQAPGKGLEWVSSISSSSSYIDYADSVKGRFTISRDNAKNSLYLQMNSLRAGDTAVYYCARVPRSDWYYFDYWGQGTLVTVSS", "VL": "B12 VL with L4V, L48F, G52D, T54K, N55Y, R68K, S100Y, L101V, G104T, V108L", "notes": "full-length IgG"}, "B19": {"name": "ADI-24849 (antibody, V domains shown)", "VH": "QVQLVQSGGVVVQPGGSLRLSCAASGFTFDDYTMHWVRQAPGKGLEWVSLIGWDGGSTYYADSVKGRFTISRDNSKYSLYLQMNSLRTEDTALYYCAKDLGSSSGYFLGRDYYGMDVWGQGTTVTVSS", "VL": "not shown", "notes": "full-length IgG; also called Ab 410"}}, "note": "Where a chain is given by its changes, count along the chain named.", "data": [{"molecular_target": "T1, RSV postfusion F (postF), subtype A (respiratory syncytial virus subtype A, UniProt P03420 26-513)", "T1 construct": "also called Postfusion subtype A; F deltaFP", "assay": "BLI", "values": [{"binder": "B1", "binding result": "no binding"}, {"binder": "B2", "binding result": "no binding"}, {"binder": "B3", "binding result": "no binding"}, {"binder": "B4", "binding result": "no binding"}, {"binder": "B5", "binding result": "no binding"}, {"binder": "B6", "binding result": "no binding"}, {"binder": "B7", "binding result": "no binding"}, {"binder": "B8", "binding result": "no binding"}, {"binder": "B9", "binding result": "no binding"}, {"binder": "B10", "binding result": "no binding"}, {"binder": "B11", "binding result": "no binding"}, {"binder": "B12", "binding result": "no binding"}, {"binder": "B13", "binding result": "no binding"}, {"binder": "B14", "binding result": "no binding"}, {"binder": "B15", "binding result": "no binding"}, {"binder": "B16", "binding result": "no binding"}, {"binder": "B17", "binding result": "no binding"}, {"binder": "B18", "binding result": "no binding"}, {"binder": "B19", "binding result": "no binding"}]}, {"molecular_target": "T2, RSV prefusion F (preF), subtype B (respiratory syncytial virus subtype B)", "T2 construct": "also called Prefusion subtype B", "assay": "BLI, IgG", "units": {"Kd": "nM"}, "values": [{"binder": "B1", "Kd": 2.39}, {"binder": "B2", "Kd": 18.4}, {"binder": "B3", "Kd": 6.41}, {"binder": "B4", "Kd": 6.23}, {"binder": "B5", "Kd": 1.56}, {"binder": "B6", "Kd": 2.76}, {"binder": "B7", "Kd": 9.63}, {"binder": "B8", "Kd": 0.391}, {"binder": "B9", "Kd": 1.71}, {"binder": "B10", "Kd": 3.71}, {"binder": "B11", "Kd": 9.44}, {"binder": "B12", "Kd": 1.83}, {"binder": "B13", "Kd": 1.56}, {"binder": "B14", "Kd": 9.23}, {"binder": "B15", "Kd": 1.95}, {"binder": "B16", "Kd": 5.56}, {"binder": "B17", "Kd": 4.88}, {"binder": "B18", "Kd": 5.55}, {"binder": "B19", "Kd": 1.17}]}, {"molecular_target": "RSV F on RSV subtype A virus (mKate-RSV A2) (respiratory syncytial virus A2, UniProt P03420 26-574)", "assay": "cell-based or functional assay", "units": {"Neut IC50 subtype A": "µg/mL"}, "values": [{"binder": "B1", "Neut IC50 subtype A": 0.73}, {"binder": "B2", "Neut IC50 subtype A": 15.3}, {"binder": "B3", "Neut IC50 subtype A": 0.24}, {"binder": "B4", "Neut IC50 subtype A": 0.21}, {"binder": "B5", "Neut IC50 subtype A": 0.04}, {"binder": "B6", "Neut IC50 subtype A": 0.03}, {"binder": "B7", "Neut IC50 subtype A": 0.44}, {"binder": "B8", "Neut IC50 subtype A": 0.02}, {"binder": "B9", "Neut IC50 subtype A": 0.15}, {"binder": "B10", "Neut IC50 subtype A": 0.18}, {"binder": "B11", "Neut IC50 subtype A": 4.33}, {"binder": "B12", "Neut IC50 subtype A": 0.27}, {"binder": "B13", "Neut IC50 subtype A": 0.06}, {"binder": "B14", "Neut IC50 subtype A": 2.2}, {"binder": "B15", "Neut IC50 subtype A": 0.49}, {"binder": "B16", "Neut IC50 subtype A": 0.94}, {"binder": "B17", "Neut IC50 subtype A": 0.21}, {"binder": "B18", "Neut IC50 subtype A": 0.63}, {"binder": "B19", "Neut IC50 subtype A": 0.01}]}, {"molecular_target": "RSV F on RSV subtype B virus (mKate-RSV B 18537) (respiratory syncytial virus B 18537, UniProt P13843 26-574)", "assay": "cell-based or functional assay", "units": {"Neut IC50 subtype B": "µg/mL"}, "values": [{"binder": "B1", "Neut IC50 subtype B": 0.32}, {"binder": "B2", "Neut IC50 subtype B": 8.58}, {"binder": "B3", "Neut IC50 subtype B": 5.6}, {"binder": "B4", "Neut IC50 subtype B": 3.29}, {"binder": "B5", "Neut IC50 subtype B": 0.05}, {"binder": "B6", "Neut IC50 subtype B": 0.03}, {"binder": "B7", "Neut IC50 subtype B": 4.1}, {"binder": "B8", "Neut IC50 subtype B": 0.04}, {"binder": "B9", "Neut IC50 subtype B": 0.11}, {"binder": "B10", "Neut IC50 subtype B": 1.4}, {"binder": "B11", "Neut IC50 subtype B": 6.28}, {"binder": "B12", "Neut IC50 subtype B": 0.19}, {"binder": "B13", "Neut IC50 subtype B": 0.09}, {"binder": "B14", "Neut IC50 subtype B": 4.4}, {"binder": "B15", "Neut IC50 subtype B": 0.24}, {"binder": "B16", "Neut IC50 subtype B": 4.17}, {"binder": "B17", "Neut IC50 subtype B": 0.71}, {"binder": "B18", "Neut IC50 subtype B": 1.06}, {"binder": "B19", "Neut IC50 subtype B": 0.03}]}]}
